# Values of other authors in US20180134803A1, “TREATMENT OF HER2-POSITIVE BREAST CANCER” (Genentech, Inc., priority 2016, published 2018).
# What was measured:
# [1] = in vivo
# [2] = system: incurable, locally advanced, recurrent or metastatic solid tumors
substance,measurement,setting,value
Pertuzumab: antibody comprising the variable light and variable heavy amino acid sequences in SEQ ID NOs: 7 and 8; HER dimerization inhibitor,mean clearance,[1],2.69 to 3.74 mL/day/kg
same,mean terminal elimination half-life,[1],15.3 to 27.6 days
same,confirmed partial responses,"[2]; Phase I, IV every 3 weeks",Two
same,"tumor regression, patients evaluable for response","[2]; Phase I, IV every 3 weeks",3 of 20
same,tolerability,"[2]; in vivo, iv",generally well tolerated
